From article PMC6761020

Target: Human Type IV Collagen (human) (UniProt P02462)
Experiment: ELISA

Human Type IV Collagen (human), sequence (P02462 173-1669): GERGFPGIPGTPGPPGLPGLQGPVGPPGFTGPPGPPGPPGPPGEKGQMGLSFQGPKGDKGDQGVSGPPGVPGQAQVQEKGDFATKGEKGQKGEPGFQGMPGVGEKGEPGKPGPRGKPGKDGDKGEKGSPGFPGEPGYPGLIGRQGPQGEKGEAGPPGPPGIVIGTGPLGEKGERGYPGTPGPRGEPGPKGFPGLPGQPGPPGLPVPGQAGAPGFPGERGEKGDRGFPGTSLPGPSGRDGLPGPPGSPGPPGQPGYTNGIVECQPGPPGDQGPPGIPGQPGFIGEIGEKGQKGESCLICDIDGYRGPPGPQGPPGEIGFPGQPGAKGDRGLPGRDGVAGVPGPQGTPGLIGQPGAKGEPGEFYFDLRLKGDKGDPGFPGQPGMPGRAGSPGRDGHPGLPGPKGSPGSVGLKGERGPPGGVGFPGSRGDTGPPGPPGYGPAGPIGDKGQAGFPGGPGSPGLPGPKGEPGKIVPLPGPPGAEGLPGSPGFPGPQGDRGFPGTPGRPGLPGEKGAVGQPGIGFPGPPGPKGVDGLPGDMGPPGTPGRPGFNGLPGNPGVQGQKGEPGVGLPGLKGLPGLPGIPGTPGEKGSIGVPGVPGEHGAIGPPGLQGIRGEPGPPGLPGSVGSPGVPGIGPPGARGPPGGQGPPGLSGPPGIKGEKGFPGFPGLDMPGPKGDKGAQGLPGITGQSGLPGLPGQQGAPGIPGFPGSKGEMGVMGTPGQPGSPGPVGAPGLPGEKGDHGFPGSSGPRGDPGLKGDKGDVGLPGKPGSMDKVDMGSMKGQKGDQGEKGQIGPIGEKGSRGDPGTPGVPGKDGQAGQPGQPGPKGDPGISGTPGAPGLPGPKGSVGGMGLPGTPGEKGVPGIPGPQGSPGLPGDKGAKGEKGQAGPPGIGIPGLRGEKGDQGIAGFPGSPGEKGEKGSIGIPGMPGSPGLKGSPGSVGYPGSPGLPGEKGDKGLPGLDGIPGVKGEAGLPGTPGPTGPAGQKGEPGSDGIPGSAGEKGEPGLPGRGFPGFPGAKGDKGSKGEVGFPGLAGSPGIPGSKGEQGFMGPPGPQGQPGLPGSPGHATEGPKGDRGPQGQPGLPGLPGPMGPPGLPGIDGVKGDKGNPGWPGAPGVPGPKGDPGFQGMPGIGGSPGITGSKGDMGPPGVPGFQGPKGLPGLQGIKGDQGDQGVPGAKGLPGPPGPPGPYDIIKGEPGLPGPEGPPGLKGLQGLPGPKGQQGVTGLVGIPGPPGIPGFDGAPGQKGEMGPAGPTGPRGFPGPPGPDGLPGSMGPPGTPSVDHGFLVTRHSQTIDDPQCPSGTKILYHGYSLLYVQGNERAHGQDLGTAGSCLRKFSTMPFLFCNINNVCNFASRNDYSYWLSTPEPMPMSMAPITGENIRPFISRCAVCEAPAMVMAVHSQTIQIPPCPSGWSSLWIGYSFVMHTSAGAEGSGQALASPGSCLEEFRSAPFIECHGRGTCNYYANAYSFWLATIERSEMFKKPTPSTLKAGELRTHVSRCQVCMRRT

percent reduction of binding by 10 μg/ml ARC1779 against saline: 34%
Substance: von Willebrand factor (human, plasma) (from UniProt P04275 764-2813) (natural protein)
